Read-outs that look alike come from different tables or passages of the source.
Legend:
[1] = 4-MUL assay, specific activity (Example 2); assay type: biochemical; conditions: for 268— +411 A Measured Specific Activity (SA) / 268— +411 A Δ SA* (change in specific activity; ratio of variant: WT): double mutant 268X+411A; for 268— Measured Specific Activity (SA) / 268— Δ SA* (change in specific activity; ratio of variant: WT): 268 single substitution
How it was run: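 Specific activity derived from 4-MU standard curves and HPLC-quantified enzyme. Initial rates were taken over the first 15 min, with an endpoint read at 1 h (pH 10 carbonate quench), all at ex 365/em 450 nm. Conditions: 0.5 mM 4-MUL, 5 μg/mL enzyme, MES pH 6, 25 mM gluconolactone, cellobiose optional.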

[2] = 4-MUL cellobiose tolerance/inhibition assay, dose-response IC50 (Example 2); assay type: biochemical; conditions: for IC50: averaged IC50 from Tables 8-11; for 268 +411A Expected IC50: expected IC50 (additive values of single mutations); for 268_+411A Synergistic**↑: measured versus expected additive IC50
How it was run: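 IC50 reflects cellobiose concentration halving activity, fitted by four-parameter dose-response with zero activity fixed at knockout-strain background. Assays used 4-MUL (0.5 mM) with enzyme at 5 μg/mL or less, pH 6 MES, 25 mM gluconolactone blocking BG, cellobiose up to 100 mM; 4-MU fluorescence read.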

[3] = double mutant 268X+411A, read-out: 268_+411A Measured (merged IC50)
[4] = 411 single substitution, read-out: 411— Measured (merged IC50)
[5] = 268 single substitution, read-out: 268— Measured (merged IC50)

Row | Molecule | 268— +411 A Δ SA* (change in specific activity; ratio of variant: WT) [1] | 268 +411A Expected IC50 ([2]; double mutant 268X+411A) [µM] | 268_+411A Synergistic**↑ ([2]; double mutant 268X+411A) | 268— Δ SA* (change in specific activity; ratio of variant: WT) [1] | IC50 [2, 5] [µM] | other results
1 | 268Ser+411A (protein, UniProt P62694 18-513, looked up, variant R268S R411A) Exoglucanase 1: QSACTLQSETHPPLTWQKCSSGGTCTQQTGSVVIDANWRWTHATNSSTNCYDGNTWSSTLCPDNETCAKNCCLDGAAYASTYGVTTSGNSLSIGFVTQSAQKNVGARLYLMASDTTYQEFTLLGNEFSFDVDVSQLPCGLNGALYFVSMDADGGVSKYPTNTAGAKYGTGYCDSQCPRDLKFINGQANVEGWEPSSNNANTGIGGHGSCCSEMDIWEANSISEALTPHPCTTVGQEICEGDGCGGTYSDNSYGGTCDPDGCDWNPYRLGNTSFYGPGSSFTLDTTKKLTVVTQFETSGAINRYYVQNGVTFQQPNAELGSYSGNELNDDYCTAEEAEFGGSSFSDKGGLTQFKKATSGGMVLVMSLWDDYYANMLWLDSTYPTNETSSTPGAVAGSCSTSSGVPAQVESQSPNAKVTFSNIKFGPIGSTGNPSGGNPPGGNRGTTTTRRPATTTGSSPGPTQSHYGQCGGIGYSGPTVCASGTTCQVLNPYYSQCL | 2.1 | 1670 | 5.7 | – | – | 268— +411 A Measured Specific Activity (SA) [1]: 1.59 μmol 4 MU/min/mg CBH I; IC50 [2, 3]: 9570 µM
2 | 268Pro+411A (protein, UniProt P62694 18-513, looked up, variant R268P R411A) Exoglucanase 1: QSACTLQSETHPPLTWQKCSSGGTCTQQTGSVVIDANWRWTHATNSSTNCYDGNTWSSTLCPDNETCAKNCCLDGAAYASTYGVTTSGNSLSIGFVTQSAQKNVGARLYLMASDTTYQEFTLLGNEFSFDVDVSQLPCGLNGALYFVSMDADGGVSKYPTNTAGAKYGTGYCDSQCPRDLKFINGQANVEGWEPSSNNANTGIGGHGSCCSEMDIWEANSISEALTPHPCTTVGQEICEGDGCGGTYSDNPYGGTCDPDGCDWNPYRLGNTSFYGPGSSFTLDTTKKLTVVTQFETSGAINRYYVQNGVTFQQPNAELGSYSGNELNDDYCTAEEAEFGGSSFSDKGGLTQFKKATSGGMVLVMSLWDDYYANMLWLDSTYPTNETSSTPGAVAGSCSTSSGVPAQVESQSPNAKVTFSNIKFGPIGSTGNPSGGNPPGGNRGTTTTRRPATTTGSSPGPTQSHYGQCGGIGYSGPTVCASGTTCQVLNPYYSQCL | 2.8 | 1700 | 5.1 | – | – | 268— +411 A Measured Specific Activity (SA) [1]: 2.16 μmol 4 MU/min/mg CBH I; IC50 [2, 3]: 8570 µM
3 | 411Val (protein, UniProt P62694 18-513, looked up, variant R411V) Exoglucanase 1: QSACTLQSETHPPLTWQKCSSGGTCTQQTGSVVIDANWRWTHATNSSTNCYDGNTWSSTLCPDNETCAKNCCLDGAAYASTYGVTTSGNSLSIGFVTQSAQKNVGARLYLMASDTTYQEFTLLGNEFSFDVDVSQLPCGLNGALYFVSMDADGGVSKYPTNTAGAKYGTGYCDSQCPRDLKFINGQANVEGWEPSSNNANTGIGGHGSCCSEMDIWEANSISEALTPHPCTTVGQEICEGDGCGGTYSDNRYGGTCDPDGCDWNPYRLGNTSFYGPGSSFTLDTTKKLTVVTQFETSGAINRYYVQNGVTFQQPNAELGSYSGNELNDDYCTAEEAEFGGSSFSDKGGLTQFKKATSGGMVLVMSLWDDYYANMLWLDSTYPTNETSSTPGAVVGSCSTSSGVPAQVESQSPNAKVTFSNIKFGPIGSTGNPSGGNPPGGNRGTTTTRRPATTTGSSPGPTQSHYGQCGGIGYSGPTVCASGTTCQVLNPYYSQCL | – | – | – | – | – | 411— Measured Specific Activity (SA) ([1]; 411 single substitution): 0.65 μmol 4 MU/min/mg CBH I; 411— Δ SA* (change in specific activity; ratio of variant: WT) ([1]; 411 single substitution): 0.9; IC50 [2, 4]: 3160 µM
4 | 411Leu (protein, UniProt P62694 18-513, looked up, variant R411L) Exoglucanase 1: QSACTLQSETHPPLTWQKCSSGGTCTQQTGSVVIDANWRWTHATNSSTNCYDGNTWSSTLCPDNETCAKNCCLDGAAYASTYGVTTSGNSLSIGFVTQSAQKNVGARLYLMASDTTYQEFTLLGNEFSFDVDVSQLPCGLNGALYFVSMDADGGVSKYPTNTAGAKYGTGYCDSQCPRDLKFINGQANVEGWEPSSNNANTGIGGHGSCCSEMDIWEANSISEALTPHPCTTVGQEICEGDGCGGTYSDNRYGGTCDPDGCDWNPYRLGNTSFYGPGSSFTLDTTKKLTVVTQFETSGAINRYYVQNGVTFQQPNAELGSYSGNELNDDYCTAEEAEFGGSSFSDKGGLTQFKKATSGGMVLVMSLWDDYYANMLWLDSTYPTNETSSTPGAVLGSCSTSSGVPAQVESQSPNAKVTFSNIKFGPIGSTGNPSGGNPPGGNRGTTTTRRPATTTGSSPGPTQSHYGQCGGIGYSGPTVCASGTTCQVLNPYYSQCL | – | – | – | – | – | 411— Δ SA* (change in specific activity; ratio of variant: WT) ([1]; 411 single substitution): 0.2; IC50 [2, 4]: 6540 µM
5 | 268Cys+411A (protein, UniProt P62694 18-513, looked up, variant R268C R411A) Exoglucanase 1: QSACTLQSETHPPLTWQKCSSGGTCTQQTGSVVIDANWRWTHATNSSTNCYDGNTWSSTLCPDNETCAKNCCLDGAAYASTYGVTTSGNSLSIGFVTQSAQKNVGARLYLMASDTTYQEFTLLGNEFSFDVDVSQLPCGLNGALYFVSMDADGGVSKYPTNTAGAKYGTGYCDSQCPRDLKFINGQANVEGWEPSSNNANTGIGGHGSCCSEMDIWEANSISEALTPHPCTTVGQEICEGDGCGGTYSDNCYGGTCDPDGCDWNPYRLGNTSFYGPGSSFTLDTTKKLTVVTQFETSGAINRYYVQNGVTFQQPNAELGSYSGNELNDDYCTAEEAEFGGSSFSDKGGLTQFKKATSGGMVLVMSLWDDYYANMLWLDSTYPTNETSSTPGAVAGSCSTSSGVPAQVESQSPNAKVTFSNIKFGPIGSTGNPSGGNPPGGNRGTTTTRRPATTTGSSPGPTQSHYGQCGGIGYSGPTVCASGTTCQVLNPYYSQCL | 0.2 | 1560 | 14.4 | – | – | –
6 | 268Ala (protein, UniProt P62694 18-513, looked up, variant R268A) Exoglucanase 1: QSACTLQSETHPPLTWQKCSSGGTCTQQTGSVVIDANWRWTHATNSSTNCYDGNTWSSTLCPDNETCAKNCCLDGAAYASTYGVTTSGNSLSIGFVTQSAQKNVGARLYLMASDTTYQEFTLLGNEFSFDVDVSQLPCGLNGALYFVSMDADGGVSKYPTNTAGAKYGTGYCDSQCPRDLKFINGQANVEGWEPSSNNANTGIGGHGSCCSEMDIWEANSISEALTPHPCTTVGQEICEGDGCGGTYSDNAYGGTCDPDGCDWNPYRLGNTSFYGPGSSFTLDTTKKLTVVTQFETSGAINRYYVQNGVTFQQPNAELGSYSGNELNDDYCTAEEAEFGGSSFSDKGGLTQFKKATSGGMVLVMSLWDDYYANMLWLDSTYPTNETSSTPGAVRGSCSTSSGVPAQVESQSPNAKVTFSNIKFGPIGSTGNPSGGNPPGGNRGTTTTRRPATTTGSSPGPTQSHYGQCGGIGYSGPTVCASGTTCQVLNPYYSQCL | – | – | – | 3.9 | 570 | 268— Measured Specific Activity (SA) [1]: 2.97 μmol 4 MU/min/mg CBH I
7 | 268Leu (protein, UniProt P62694 18-513, looked up, variant R268L) Exoglucanase 1: QSACTLQSETHPPLTWQKCSSGGTCTQQTGSVVIDANWRWTHATNSSTNCYDGNTWSSTLCPDNETCAKNCCLDGAAYASTYGVTTSGNSLSIGFVTQSAQKNVGARLYLMASDTTYQEFTLLGNEFSFDVDVSQLPCGLNGALYFVSMDADGGVSKYPTNTAGAKYGTGYCDSQCPRDLKFINGQANVEGWEPSSNNANTGIGGHGSCCSEMDIWEANSISEALTPHPCTTVGQEICEGDGCGGTYSDNLYGGTCDPDGCDWNPYRLGNTSFYGPGSSFTLDTTKKLTVVTQFETSGAINRYYVQNGVTFQQPNAELGSYSGNELNDDYCTAEEAEFGGSSFSDKGGLTQFKKATSGGMVLVMSLWDDYYANMLWLDSTYPTNETSSTPGAVRGSCSTSSGVPAQVESQSPNAKVTFSNIKFGPIGSTGNPSGGNPPGGNRGTTTTRRPATTTGSSPGPTQSHYGQCGGIGYSGPTVCASGTTCQVLNPYYSQCL | – | – | – | 2.4 | 450 | 268— Measured Specific Activity (SA) [1]: 1.83 μmol 4 MU/min/mg CBH I
8 | 268A+411Ile (protein, UniProt P62694 18-513, looked up, variant R268A R411I) Exoglucanase 1: QSACTLQSETHPPLTWQKCSSGGTCTQQTGSVVIDANWRWTHATNSSTNCYDGNTWSSTLCPDNETCAKNCCLDGAAYASTYGVTTSGNSLSIGFVTQSAQKNVGARLYLMASDTTYQEFTLLGNEFSFDVDVSQLPCGLNGALYFVSMDADGGVSKYPTNTAGAKYGTGYCDSQCPRDLKFINGQANVEGWEPSSNNANTGIGGHGSCCSEMDIWEANSISEALTPHPCTTVGQEICEGDGCGGTYSDNAYGGTCDPDGCDWNPYRLGNTSFYGPGSSFTLDTTKKLTVVTQFETSGAINRYYVQNGVTFQQPNAELGSYSGNELNDDYCTAEEAEFGGSSFSDKGGLTQFKKATSGGMVLVMSLWDDYYANMLWLDSTYPTNETSSTPGAVIGSCSTSSGVPAQVESQSPNAKVTFSNIKFGPIGSTGNPSGGNPPGGNRGTTTTRRPATTTGSSPGPTQSHYGQCGGIGYSGPTVCASGTTCQVLNPYYSQCL | – | – | – | – | – | 268A+411— Δ SA* (change in specific activity; ratio of variant: WT) ([1]; double mutant 268A+411X): 0.5; IC50 ([2]; double mutant 268A+411X, read-out: 268A+411— Measured (merged IC50)): 32700 µM
9 | 268Phe (protein, UniProt P62694 18-513, looked up, variant R268F) Exoglucanase 1: QSACTLQSETHPPLTWQKCSSGGTCTQQTGSVVIDANWRWTHATNSSTNCYDGNTWSSTLCPDNETCAKNCCLDGAAYASTYGVTTSGNSLSIGFVTQSAQKNVGARLYLMASDTTYQEFTLLGNEFSFDVDVSQLPCGLNGALYFVSMDADGGVSKYPTNTAGAKYGTGYCDSQCPRDLKFINGQANVEGWEPSSNNANTGIGGHGSCCSEMDIWEANSISEALTPHPCTTVGQEICEGDGCGGTYSDNFYGGTCDPDGCDWNPYRLGNTSFYGPGSSFTLDTTKKLTVVTQFETSGAINRYYVQNGVTFQQPNAELGSYSGNELNDDYCTAEEAEFGGSSFSDKGGLTQFKKATSGGMVLVMSLWDDYYANMLWLDSTYPTNETSSTPGAVRGSCSTSSGVPAQVESQSPNAKVTFSNIKFGPIGSTGNPSGGNPPGGNRGTTTTRRPATTTGSSPGPTQSHYGQCGGIGYSGPTVCASGTTCQVLNPYYSQCL | – | – | – | 0.5 | 480 | –

From US20140287471A1, “VARIANT CBH I POLYPEPTIDES WITH REDUCED PRODUCT INHIBITION” (BP CORPORATION NORTN AMERICA INC., priority 2011, published 2014)
